{
  "source": "patent US20190330271A1",
  "about": "(HANGZHOU WISDOM PANACEA BIOLOGICS, published 2019)",
  "molecular_target": "T1, Aβ42 oligomers (UniProt P05067 672-713)",
  "T1 construct": "domain: Aβ42; Oligomeric state",
  "T1 sequence (P05067 672-713 limits assumed)": "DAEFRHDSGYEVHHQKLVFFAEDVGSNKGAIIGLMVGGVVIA",
  "assay": "ELISA on coated Aβ42 oligomers, His-tagged polypeptide at 1 µg per well",
  "procedure": "100 μL of monomers, oligomers or fibers of Aβ42, PrP, amylin, insulin or lysozyme were respectively coated onto a 96-well ELISA microplate at 1 μg/well, BSA was used as a negative control. The plate were then placed at 37° C. for 2 h, blocked with 200 μL/well of 3% BSA at 37° C. for 2 h, and washed 3 times with PBS. 100 μL of histidine-tagged ZR polypeptide solution was added, and the plate was incubated at room temperature for 1 h, and then washed 3 times with PBS containing 0.1% Tween-20. 100 μL of HRP-linked antibody 9E10 which can recognize the histidine tag was added to each well, and the plate was incubated at room temperature for 1 h, and then washed 3 times with PBS containing 0.1% Tween-20. 100 μL of TMB was added to each well, and the plate was placed at 37° C. for 20 min. Then, 50 μL of 1 mmol/L sulfuric acid was added to each well to terminate the reaction, and OD450 values were measured using a microplate reader. The above procedure was repeated for 3 times under the same condition.",
  "data": [
    {"binder": "SAFNNKR (also called ZR with position 2 substituted with alanine; not shown: histidine tag)", "note": "[SEQ ID NO: 8, histidine-tagged]", "values": [
      {"measurement": "OD450", "result": 0.48}
    ]},
    {"binder": "SFFANKR (also called ZR with position 4 substituted with alanine; not shown: histidine tag)", "note": "[SEQ ID NO: 10, histidine-tagged]", "values": [
      {"measurement": "OD450", "result": 0.57}
    ]}
  ]
}
